# Laboratory results as given in patent US20180155451A1 (published 2018).
# T1: FcγRIIb (human, UniProt P31994 43-217)
# T1 construct: extracellular domain; also called FcgRIIb; 2b; not shown: His tag at the C terminus
# T1 sequence (looked up): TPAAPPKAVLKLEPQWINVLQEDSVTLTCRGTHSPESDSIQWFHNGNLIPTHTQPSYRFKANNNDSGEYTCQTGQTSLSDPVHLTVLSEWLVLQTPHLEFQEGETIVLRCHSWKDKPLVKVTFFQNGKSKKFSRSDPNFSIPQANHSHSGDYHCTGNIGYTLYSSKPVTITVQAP
# B1: GpH7-A5/GpH7-B3 variant Q295_09D/GpL16-k0 (antibody, human IgG1, kappa)
# heavy 1: not shown
# heavy 2: not shown
# light: DIVMTQSPLSLPVTPGEPASISCQASESLVHSNRNTYLHWYLQKPGQSPQLLIYKVSNRFSGVPDRFSGSGSGTDFTLKISRVEAEDVGVYYCSQNTHVPPTFGQGTKVEIERTVAAPSVFIFPPSDEQLKSGTASVVCLLNNFYPREAKVQWKVDNALQSGNSQESVTEQDSKDSTYSLSSTLTLSKADYEKHKVYACEVTHQGLSSPVTKSFNRGEC
# notes: He Ab: mutation only in the GpH7-B3 H chain; EU numbering; also called He Ab
# B2: GpH7-A5/GpH7-B3 variant Y296_11K/GpL16-k0 (antibody, human IgG1, kappa)
# heavy 1: not shown
# heavy 2: not shown
# light: B1 light
# notes: as for B1
# B3: GpH7-A5/GpH7-B3 variant Y296_02A/GpL16-k0 (antibody, human IgG1, kappa)
# heavy 1: not shown
# heavy 2: not shown
# light: B1 light
# notes: as for B1
# B4: GpH7-A5/GpH7-B3 variant S298_12R/GpL16-k0 (antibody, human IgG1, kappa)
# heavy 1: not shown
# heavy 2: not shown
# light: B1 light
# notes: as for B1
# B5: GpH7-A5/GpH7-B3 variant Y296_03V/GpL16-k0 (antibody, human IgG1, kappa)
# heavy 1: not shown
# heavy 2: not shown
# light: B1 light
# notes: as for B1
# B6: GpH7-A5/GpH7-B3 variant Y296_09D/GpL16-k0 (antibody, human IgG1, kappa)
# heavy 1: not shown
# heavy 2: not shown
# light: B1 light
# notes: as for B1
# B7: GpH7-A5/GpH7-B3 variant Q295_13S/GpL16-k0 (antibody, human IgG1, kappa)
# heavy 1: not shown
# heavy 2: not shown
# light: B1 light
# notes: as for B1
# B8: GpH7-A5/GpH7-B3 variant Q295_16H/GpL16-k0 (antibody, human IgG1, kappa)
# heavy 1: not shown
# heavy 2: not shown
# light: B1 light
# notes: as for B1
# B9: GpH7-A5/GpH7-B3 variant S298_18N/GpL16-k0 (antibody, human IgG1, kappa)
# heavy 1: not shown
# heavy 2: not shown
# light: B1 light
# notes: as for B1
# B10: GpH7-A5/GpH7-B3 variant Y296_12R/GpL16-k0 (antibody, human IgG1, kappa)
# heavy 1: not shown
# heavy 2: not shown
# light: B1 light
# notes: as for B1
# B11: GpH7-A5/GpH7-B3 variant Y296_19Q/GpL16-k0 (antibody, human IgG1, kappa)
# heavy 1: not shown
# heavy 2: not shown
# light: B1 light
# notes: as for B1
# B12: GpH7-A5/GpH7-B3 variant Y296_08L/GpL16-k0 (antibody, human IgG1, kappa)
# heavy 1: not shown
# heavy 2: not shown
# light: B1 light
# notes: as for B1
# B13: GpH7-A5/GpH7-B3 variant Y296_06M/GpL16-k0 (antibody, human IgG1, kappa)
# heavy 1: not shown
# heavy 2: not shown
# light: B1 light
# notes: as for B1
# B14: GpH7-A5/GpH7-B3 variant S298_16H/GpL16-k0 (antibody, human IgG1, kappa)
# heavy 1: not shown
# heavy 2: not shown
# light: B1 light
# notes: as for B1
# B15: GpH7-A5/GpH7-B3 variant S298_10E/GpL16-k0 (antibody, human IgG1, kappa)
# heavy 1: not shown
# heavy 2: not shown
# light: B1 light
# notes: as for B1
# B16: GpH7-A5/GpH7-B3 variant Y296_14T/GpL16-k0 (antibody, human IgG1, kappa)
# heavy 1: not shown
# heavy 2: not shown
# light: B1 light
# notes: as for B1
# B17: GpH7-A5/GpH7-B3 variant S298_09D/GpL16-k0 (antibody, human IgG1, kappa)
# heavy 1: not shown
# heavy 2: not shown
# light: B1 light
# notes: as for B1
# B18: GpH7-A5/GpH7-B3 variant Q295_18N/GpL16-k0 (antibody, human IgG1, kappa)
# heavy 1: not shown
# heavy 2: not shown
# light: B1 light
# notes: as for B1
# B19: GpH7-A5/GpH7-B3 variant Y296_16H/GpL16-k0 (antibody, human IgG1, kappa)
# heavy 1: not shown
# heavy 2: not shown
# light: B1 light
# notes: as for B1
# B20: GpH7-A5/GpH7-B3 variant Q295_10E/GpL16-k0 (antibody, human IgG1, kappa)
# heavy 1: not shown
# heavy 2: not shown
# light: B1 light
# notes: as for B1
# B21: GpH7-A5/GpH7-B3 variant S298_01G/GpL16-k0 (antibody, human IgG1, kappa)
# heavy 1: not shown
# heavy 2: not shown
# light: B1 light
# notes: as for B1
# B22: GpH7-A5/GpH7-B3 variant Y296_01G/GpL16-k0 (antibody, human IgG1, kappa)
# heavy 1: not shown
# heavy 2: not shown
# light: B1 light
# notes: as for B1
# B23: GpH7-A5/GpH7-B3 variant S298_15Y/GpL16-k0 (antibody, human IgG1, kappa)
# heavy 1: not shown
# heavy 2: not shown
# light: B1 light
# notes: as for B1
# Target: T1, FcγRIIb
# Assay: SPR (Biacore), captured antibody, soluble FcγR; relative to GpH7-A5/GpH7-B3/GpL16-k0
row,Binder,He/Con_2b
1,B1,"60.8 relative, HeCon Ab = 100"
2,B2,"72.8 relative, HeCon Ab = 100"
3,B3,"82 relative, HeCon Ab = 100"
4,B4,"57.8 relative, HeCon Ab = 100"
5,B5,"79.3 relative, HeCon Ab = 100"
6,B6,"98.9 relative, HeCon Ab = 100"
7,B7,"56.9 relative, HeCon Ab = 100"
8,B8,"62.7 relative, HeCon Ab = 100"
9,B9,"48.1 relative, HeCon Ab = 100"
10,B10,"79.5 relative, HeCon Ab = 100"
11,B11,"89.3 relative, HeCon Ab = 100"
12,B12,"82.3 relative, HeCon Ab = 100"
13,B13,"87.8 relative, HeCon Ab = 100"
14,B14,"63.5 relative, HeCon Ab = 100"
15,B15,"47.6 relative, HeCon Ab = 100"
16,B16,"88.2 relative, HeCon Ab = 100"
17,B17,"48.3 relative, HeCon Ab = 100"
18,B18,"64.9 relative, HeCon Ab = 100"
19,B19,"92.2 relative, HeCon Ab = 100"
20,B20,"94.8 relative, HeCon Ab = 100"
21,B21,"80.1 relative, HeCon Ab = 100"
22,B22,"79.3 relative, HeCon Ab = 100"
23,B23,"61.4 relative, HeCon Ab = 100"

# Target: T2, FcγRIa (human, UniProt P12314 16-292)
# T2 construct: extracellular domain; also called FcgRI; 1a; not shown: His tag at the C terminus
# T2 sequence (P12314 16-292): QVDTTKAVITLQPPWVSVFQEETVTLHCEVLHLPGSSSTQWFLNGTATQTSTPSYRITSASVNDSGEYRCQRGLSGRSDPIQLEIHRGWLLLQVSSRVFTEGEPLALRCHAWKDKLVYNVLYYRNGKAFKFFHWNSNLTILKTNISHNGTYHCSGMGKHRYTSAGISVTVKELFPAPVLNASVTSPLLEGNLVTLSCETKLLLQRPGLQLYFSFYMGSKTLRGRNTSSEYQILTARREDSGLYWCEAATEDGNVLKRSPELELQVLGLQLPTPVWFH
# Assay: as above
row,Binder,He/Con_1a
1,B1,"100 relative, HeCon Ab = 100"
2,B2,"105 relative, HeCon Ab = 100"
3,B3,"103 relative, HeCon Ab = 100"
4,B4,"109 relative, HeCon Ab = 100"
5,B5,"104 relative, HeCon Ab = 100"
6,B6,"106 relative, HeCon Ab = 100"
7,B7,"102 relative, HeCon Ab = 100"
8,B8,"102 relative, HeCon Ab = 100"
9,B9,"108 relative, HeCon Ab = 100"
10,B10,"106 relative, HeCon Ab = 100"
11,B11,"112 relative, HeCon Ab = 100"
12,B12,"104 relative, HeCon Ab = 100"
13,B13,"104 relative, HeCon Ab = 100"
14,B14,"109 relative, HeCon Ab = 100"
15,B15,"108 relative, HeCon Ab = 100"
16,B16,"105 relative, HeCon Ab = 100"
17,B17,"106 relative, HeCon Ab = 100"
18,B18,"102 relative, HeCon Ab = 100"
19,B19,"106 relative, HeCon Ab = 100"
20,B20,"103 relative, HeCon Ab = 100"
21,B21,"104 relative, HeCon Ab = 100"
22,B22,"103 relative, HeCon Ab = 100"
23,B23,"107 relative, HeCon Ab = 100"
